The values that follow come from PMC548348.

The data set concerns the target hnRNP A2 (recombinant) (Homo sapiens, UniProt P22626-2 1-341). The data set can be described thus: UV-cross-linking EMSA, competition. (In general: In EMSA bound probe runs differently from free probe, usually more slowly.)

B1: A2RE11 (ssRNA)
RNA: GCCAAGGAGCC
Regarding B1, the binding result is listed as “binds”.
